Measurements: publication PMC7247549, “Biochemical Convergence of Mitochondrial Hsp70 System Specialized in Iron–Sulfur Cluster Biogenesis” (International Journal of Molecular Sciences, 2020)
Each block holds one molecule with its values, some of them ahead of it.

Columns and labels:
[1] = molecular target: Isu1-GST fusion protein (S. cerevisiae) (UniProt Q03020); assay: pull-down; Isu1-GST (30 μM) incubated with increasing Ssq1, 4 mM ADP, PD buffer (40 mM HEPES-KOH pH 7.5, 100 mM KCl, 1 mM DTT, 10 mM MgCl2, 5% glycerol), 15 min at 25 °C, then glutathione resin; SDS-PAGE, Coomassie, densitometry, Michaelis-Menten hyperbolic fit
Isu1-GST fusion protein (S. cerevisiae), sequence (Q03020 28-165): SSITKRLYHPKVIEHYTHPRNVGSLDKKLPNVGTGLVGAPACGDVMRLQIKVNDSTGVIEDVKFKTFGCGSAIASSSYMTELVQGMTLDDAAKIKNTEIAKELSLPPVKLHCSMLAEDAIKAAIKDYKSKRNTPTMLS

[2] = substrate: Nc1ncnc2c1ncn2[C@@H]1O[C@H](COP(=O)(O)OP(=O)(O)OP(=O)(O)O)[C@@H](O)[C@H]1O; assay: steady-state ATPase, PK/LDH NADH-coupled assay; assay type: biochemical, Saccharomyces cerevisiae; details: 2.5 μM Ssq1 with 2.5 μM nucleotide exchange factor Mge1, no Isu1 or Hsc20 mentioned, pH 7.5, 150 mM KCl, 20 mM Mg acetate, 23 °C
Ssq1 (S. cerevisiae) [3] = molecular target: T1, Ssq1 (S. cerevisiae)
T1 sequence (Q05931 whole entry, looked up): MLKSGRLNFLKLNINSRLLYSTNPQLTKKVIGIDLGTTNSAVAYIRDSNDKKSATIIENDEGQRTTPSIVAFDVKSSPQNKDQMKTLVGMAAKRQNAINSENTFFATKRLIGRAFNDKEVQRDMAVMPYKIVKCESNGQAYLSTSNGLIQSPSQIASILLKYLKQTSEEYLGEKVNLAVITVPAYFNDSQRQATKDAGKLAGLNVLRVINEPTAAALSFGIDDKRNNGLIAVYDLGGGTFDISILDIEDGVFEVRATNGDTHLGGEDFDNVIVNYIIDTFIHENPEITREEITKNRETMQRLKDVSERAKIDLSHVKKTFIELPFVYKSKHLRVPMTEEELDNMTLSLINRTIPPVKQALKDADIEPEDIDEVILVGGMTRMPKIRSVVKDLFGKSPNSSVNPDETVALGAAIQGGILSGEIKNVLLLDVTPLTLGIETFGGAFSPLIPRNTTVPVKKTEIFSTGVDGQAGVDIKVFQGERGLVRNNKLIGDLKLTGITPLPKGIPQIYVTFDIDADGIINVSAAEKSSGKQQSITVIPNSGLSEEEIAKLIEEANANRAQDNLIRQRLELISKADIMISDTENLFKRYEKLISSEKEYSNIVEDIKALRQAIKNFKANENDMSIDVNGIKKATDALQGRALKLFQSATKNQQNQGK

Ssq1 (S. cerevisiae) [4] = molecular target: T1, Ssq1 (S. cerevisiae); details: scale: fold
purified protein = substrate: Nc1ncnc2c1ncn2[C@@H]1O[C@H](COP(=O)(O)OP(=O)(O)OP(=O)(O)O)[C@@H](O)[C@H]1O; assay: purified protein; details: 1 μM HscA, no exchange factor, no IscU or HscB mentioned, pH 7.5, 150 mM KCl, 20 mM Mg acetate, 23 °C

Km (with ADP) [1]: 2.18 µM
Molecule: Ssq1 (natural protein)

B1: Ssq1 (Saccharomyces cerevisiae S288C) (protein)
chain: PQLTKKVIGIDLGTTNSAVAYIRDSNDKKSATIIENDEGQRTTPSIVAFDVKSSPQNKDQMKTLVGMAAKRQNAINSENTFFATKRLIGRAFNDKEVQRDMAVMPYKIVKCESNGQAYLSTSNGLIQSPSQIASILLKYLKQTSEEYLGEKVNLAVITVPAYFNDSQRQATKDAGKLAGLNVLRVINEPTAAALSFGIDDKRNNGLIAVYDLGGGTFDISILDIEDGVFEVRATNGDTHLGGEDFDNVIVNYIIDTFIHENPEITREEITKNRETMQRLKDVSERAKIDLSHVKKTFIELPFVYKSKHLRVPMTEEELDNMTLSLINRTIPPVKQALKDADIEPEDIDEVILVGGMTRMPKIRSVVKDLFGKSPNSSVNPDETVALGAAIQGGILSGEIKNVLLLDVTPLTLGIETFGGAFSPLIPRNTTVPVKKTEIFSTGVDGQAGVDIKVFQGERGLVRNNKLIGDLKLTGITPLPKGIPQIYVTFDIDADGIINVSAAEKSSGKQQSITVIPNSGLSEEEIAKLIEEANANRAQDNLIRQRLELISKADIMISDTENLFKRYEKLISSEKEYSNIVEDIKALRQAIKNFKANENDMSIDVNGIKKATDALQGRALKLFQSATKNQQNQGK
Km [2]: 25 µM

apparent Km of Hsc20 for stimulation of Ssq1 ATPase activity (radioactive assay, 10 μM Isu1, 0.5 μM Mge1), compared with that of HscB for HscA (fold (affinity, against HscA for HscB)) (Ssq1 (S. cerevisiae) [3]): 8
apparent Km of Hsc20 (0.0025-0.25 μM) for stimulating the pull-down of Ssq1 with Isu1-GST in ATP, compared with that of HscB (Ssq1 (S. cerevisiae) [4]): 4
B2: Hsc20 (natural protein)
chain: TSTFYELFPKTFPKKLPIWTIDQSRLRKEYRQLQAQHHPDMAQQGSEQSSTLNQAYHTLKDPLRRSQYMLKLLRNIDLTQEQTSNEVTTSDPQLLLKVLDIHDELSQMDDEAGVKLLEKQNKERIQDIEAQLGQCYNDKDYAAAVKLTVELKYWYNLAKAFKDWAPGKQLEMNH

B3: HscA (Escherichia coli K-12) (protein)
chain: MALLQISEPGLSAAPHQRRLAAGIDLGTTNSLVATVRSGQAETLADHEGRHLLPSVVHYQQQGHSVGYDARTNAALDTANTISSVKRLMGRSLADIQQRYPHLPYQFQASENGLPMIETAAGLLNPVRVSADILKALAARATEALAGELDGVVITVPAYFDDAQRQGTKDAARLAGLHVLRLLNEPTAAAIAYGLDSGQEGVIAVYDLGGGTFDISILRLSRGVFEVLATGGDSALGGDDFDHLLADYIREQAGIPDRSDNRVQRELLDAAIAAKIALSDADSVTVNVAGWQGEISREQFNELIAPLVKRTLLACRRALKDAGVEADEVLEVVMVGGSTRVPLVRERVGEFFGRPPLTSIDPDKVVAIGAAIQADILVGNKPDSEMLLLDVIPLSLGLETMGGLVEKVIPRNTTIPVARAQDFTTFKDGQTAMSIHVMQGERELVQDCRSLARFALRGIPALPAGGAHIRVTFQVDADGLLSVTAMEKSTGVEASIQVKPSYGLTDSEIASMIKDSMSYAEQDVKARMLAEQKVEAARVLESLHGALAADAALLSAAERQVIDDAAAHLSEVAQGDDVDAIEQAIKNVDKQTQDFAARRMDQSVRRALKGHSVDEV
Km (purified protein): 28 µM
